Article PMC10903983 (2024)

Biological target: KPNA2 (Homo sapiens, UniProt P52292)
Assay: MST

| Kd | Binder |
| --- | --- |
| ~1.16 µM | KLVFFVKRKKKP [NLS-FF-T nucleopeptide] |
| ~31.1 µM | KLVFF [FF-T nucleopeptide] |
